Measurements published in US20070292409A1 (University of California, published 2007).

Assays:
[1] = target: G protein-q/11 α-subunit (Gαq/11), endogenous protein of 3T3-L1 adipocytes (UniProt P21279)
[2] = target: T1, insulin receptor, endogenous protein of 3T3-L1 adipocytes (UniProt P15208 28-1372, limits assumed); experiment: co-immunoprecipitation with anti-GRK2 antibody from 3T3-L1 adipocyte lysates
T1 construct: The mature receptor is made of alpha and beta chains; also called IR
T1 sequence (P15208 28-1372 limits assumed): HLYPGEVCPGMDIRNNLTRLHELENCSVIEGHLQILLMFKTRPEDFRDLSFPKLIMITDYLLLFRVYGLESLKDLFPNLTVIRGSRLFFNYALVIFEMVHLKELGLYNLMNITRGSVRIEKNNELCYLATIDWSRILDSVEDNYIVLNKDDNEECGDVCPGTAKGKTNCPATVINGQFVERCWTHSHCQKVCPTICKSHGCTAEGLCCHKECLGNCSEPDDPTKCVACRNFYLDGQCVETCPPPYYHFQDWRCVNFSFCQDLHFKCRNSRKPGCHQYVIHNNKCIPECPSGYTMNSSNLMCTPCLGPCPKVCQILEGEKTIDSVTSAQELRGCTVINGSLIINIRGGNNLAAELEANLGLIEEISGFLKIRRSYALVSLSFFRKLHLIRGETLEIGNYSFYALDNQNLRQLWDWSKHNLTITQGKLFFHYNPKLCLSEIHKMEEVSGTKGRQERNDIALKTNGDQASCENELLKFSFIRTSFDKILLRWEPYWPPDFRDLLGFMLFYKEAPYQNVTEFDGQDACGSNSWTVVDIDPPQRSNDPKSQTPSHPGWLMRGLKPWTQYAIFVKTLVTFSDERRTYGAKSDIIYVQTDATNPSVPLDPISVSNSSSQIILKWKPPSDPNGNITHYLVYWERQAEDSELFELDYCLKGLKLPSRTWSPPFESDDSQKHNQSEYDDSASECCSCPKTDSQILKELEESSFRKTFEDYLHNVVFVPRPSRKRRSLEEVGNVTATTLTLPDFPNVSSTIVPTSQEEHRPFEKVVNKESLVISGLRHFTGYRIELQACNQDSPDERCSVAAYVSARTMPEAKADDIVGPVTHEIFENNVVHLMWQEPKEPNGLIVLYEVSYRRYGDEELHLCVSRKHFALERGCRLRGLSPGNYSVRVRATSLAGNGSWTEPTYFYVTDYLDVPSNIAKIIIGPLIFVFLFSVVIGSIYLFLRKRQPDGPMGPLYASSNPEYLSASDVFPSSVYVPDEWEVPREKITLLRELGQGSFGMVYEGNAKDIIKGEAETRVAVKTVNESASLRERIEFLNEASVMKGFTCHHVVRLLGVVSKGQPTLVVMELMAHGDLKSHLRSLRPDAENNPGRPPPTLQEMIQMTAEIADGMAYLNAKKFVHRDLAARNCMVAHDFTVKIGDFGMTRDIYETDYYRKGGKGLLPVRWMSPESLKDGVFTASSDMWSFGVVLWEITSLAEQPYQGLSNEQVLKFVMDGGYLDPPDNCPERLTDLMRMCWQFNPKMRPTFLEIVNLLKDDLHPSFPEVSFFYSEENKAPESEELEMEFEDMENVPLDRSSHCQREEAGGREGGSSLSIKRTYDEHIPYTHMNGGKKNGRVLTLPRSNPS

Chain of G protein-q/11 α-subunit (Gαq/11), endogenous protein of 3T3-L1 adipocytes (P21279 whole entry): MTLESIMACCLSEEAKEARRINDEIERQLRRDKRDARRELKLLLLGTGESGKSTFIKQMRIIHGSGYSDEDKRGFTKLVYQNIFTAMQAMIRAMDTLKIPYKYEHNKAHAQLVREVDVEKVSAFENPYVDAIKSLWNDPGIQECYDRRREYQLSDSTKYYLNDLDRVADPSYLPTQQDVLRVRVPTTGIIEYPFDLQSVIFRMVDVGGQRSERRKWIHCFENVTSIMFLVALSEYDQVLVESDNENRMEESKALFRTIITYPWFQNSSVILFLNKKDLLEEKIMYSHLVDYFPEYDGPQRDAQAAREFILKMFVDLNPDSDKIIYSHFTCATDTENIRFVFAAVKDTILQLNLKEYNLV

For “deletion mutant of GRK2 lacking the RGS domain”, the “insulin-induced GLUT4 translocation after nuclear microinjection of the expression vector” value (“insulin-induced GLUT4 translocation” below) [1] was “overexpression of delta-GRK2 had no effect”.

With “kinase deficient (K220R) GRK2, overexpressed (adenovirus or plasmid vector)” the “Gαq/11 tyrosine phosphorylation stimulated by ET-1 or insulin (PY20 immunoprecipitation, anti-Gαq/11 blot)” value [1] was “both WT- and KD-GRK2 overexpression inhibited Gαq/11 tyrosine phosphorylation stimulated by ET-1 or insulin”, the “insulin-induced GLUT4 translocation” value [1] was “overexpression of either WT- or KD-GRK2 by nuclear microinjection inhibited insulin-induced GLUT4 translocation” and the “insulin-induced Gαq/11 tyrosine phosphorylation (PY20 immunoprecipitation, anti-Gαq/11 blot)” value [1] was “overexpression of either WT- or KD-GRK2 inhibited insulin-induced Gαq/11 tyrosine phosphorylation”.

With “wild type GRK2, overexpressed (adenovirus or plasmid vector)” the “Gαq/11 tyrosine phosphorylation stimulated by ET-1 or insulin (PY20 immunoprecipitation, anti-Gαq/11 blot)” value [1] was “both WT- and KD-GRK2 overexpression inhibited Gαq/11 tyrosine phosphorylation stimulated by ET-1 or insulin”, the “insulin-induced GLUT4 translocation” value [1] was “overexpression of either WT- or KD-GRK2 by nuclear microinjection inhibited insulin-induced GLUT4 translocation” and the “insulin-induced Gαq/11 tyrosine phosphorylation (PY20 immunoprecipitation, anti-Gαq/11 blot)” value [1] was “overexpression of either WT- or KD-GRK2 inhibited insulin-induced Gαq/11 tyrosine phosphorylation”.

B1: G protein-coupled receptor kinase 2 (GRK2), endogenous protein of 3T3-L1 adipocytes (enzyme, UniProt Q99MK8 1-689, looked up)
chain: MADLEAVLADVSYLMAMEKSKATPAARASKKILLPEPSIRSVMQKYLEDRGEVTFEKIFSQKLGYLLFRDFCLNHLEEAKPLVEFYEEIKKYEKLETEEERVVRSREIFDSYIMKELLACSHPFSKNATEHVQGHLVKKQVPPDLFQPYIEEICQNLRGDVFQKFIESDKFTRFCQWKNVELNIHLTMNDFSVHRIIGRGGFGEVYGCRKADTGKMYAMKCLDKKRIKMKQGETLALNERIMLSLVSTGDCPFIVCMSYAFHTPDKLSFILDLMNGGDLHYHLSQHGVFSEADMRFYAAEIILGLEHMHNRFVVYRDLKPANILLDEHGHVRISDLGLACDFSKKRPHASVGTHGYMAPEVLQKGVAYDSSADWFSLGCMLFKLLRGHSPFRQHKTKDKHEIDRMTLTMAVELPDSFSPELRSLLEGLLQRDVNRRLGCLGRGAQEVKESPFFRSLDWQMVFLQKYPPPLIPPRGEVNAADAFDIGSFDEEDTKGIKLLDSDQELYRNFPLTISERWQQEVAETVFDTINAETDRLEARKKAKNKQLGHEEDYALGKDCIVHGYMSKMGNPFLTQWQRRYFYLFPNRLEWRGEGEAPQSLLTMEEIQSVEETQIKERKCLLLKIRGGKQFVLQCDSDPELVQWKKELRDAYREAQQLVQRVPKMKNKPRSPVVELSKVPLIQRGSANGL
notes: Precipitated from cell lysate with a rabbit polyclonal anti-GRK2 antibody; also called endogenous GRK2
B1: no binding [2].
